Conditions in all cases: both partners purified
In assay [1] the target is T1, placental growth factor (PlGF) (UniProt P49763 19-221).
T1 chain: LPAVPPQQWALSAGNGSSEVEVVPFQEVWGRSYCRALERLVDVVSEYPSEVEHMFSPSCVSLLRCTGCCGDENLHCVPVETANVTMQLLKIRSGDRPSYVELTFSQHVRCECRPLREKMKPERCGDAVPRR
Nature of the assay: SPR; BIACORE 3000; VEGF-B167 and PlGF immobilized on CM5 chip, FC1 blank; conbercept injected at eight two-fold dilutions 31.25 nM to 4000 nM in HBS buffer. (In general: Surface plasmon resonance follows binding to a sensor surface in real time, without labels.)

The target of assay [2] is T2, VEGF-B167 (UniProt P49765-2 22-188).
T2 construct: VEGF-B, isoform VEGF-B167; source: bought: R&D
T2 sequence (looked up): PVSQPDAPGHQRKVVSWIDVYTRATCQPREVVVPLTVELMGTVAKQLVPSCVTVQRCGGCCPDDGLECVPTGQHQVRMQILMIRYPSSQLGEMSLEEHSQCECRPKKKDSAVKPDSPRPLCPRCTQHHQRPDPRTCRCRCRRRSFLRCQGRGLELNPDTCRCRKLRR
The description is as above.

Assay [3] concerns the target T3, VEGF-A121.
T3 chain: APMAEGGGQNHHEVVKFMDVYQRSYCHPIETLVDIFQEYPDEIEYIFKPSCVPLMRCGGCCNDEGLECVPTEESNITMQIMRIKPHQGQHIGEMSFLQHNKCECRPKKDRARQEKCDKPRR
The assay can be described thus: SPR; BIACORE 3000; VEGF-A isoforms amine-coupled on CM5 chip (about 5,000±500 RU), FC1 blank; conbercept injected at eight two-fold dilutions 1.25 nM to 160 nM in HBS buffer (10 mM HEPES, 0.15 M sodium chloride, 3.4 mM EDTA, 0.005% surfactant P20); 1:1 binding with baseline drift model.

The target of assay [4] is T4, VEGF-A165.
T4 chain: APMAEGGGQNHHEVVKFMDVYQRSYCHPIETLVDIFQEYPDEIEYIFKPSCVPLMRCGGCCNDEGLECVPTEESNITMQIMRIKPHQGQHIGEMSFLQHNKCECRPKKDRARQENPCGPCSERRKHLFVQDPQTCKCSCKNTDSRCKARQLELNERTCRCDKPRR
The description is as above.

Assay [5] addresses T4, VEGF-A165. Nature of the assay: ELISA; antigen (VEGF-A165, VEGF-B167 or PlGF) coated at 4 nM in PBS on PVC plate, blocked with 1% BSA; diluted conbercept added 2 h at room temperature; detected with HRP goat anti-human secondary antibody, absorbance at 450 nm.

B1: conbercept (Fc fusion)
chain: GRPFVEMYSEIPEIIHMTEGRELVIPCRVTSPNITVTLKKFPLDTLIPDGKRIIWDSRKGFIISNATYKEIGLLTCEATVNGHLYKTNYLTHRQTNTIIDVVLSPSHGIELSVGEKLVLNCTARTELNVGIDFNWEYPSSKHQHKKLVNRDLKTQSGSEMKKFLSTLTIDGVTRSDQGLYTCAASSGLMTKKNSTFVRVHEKPFVAFGSGMESLVEATVGERVRIPAKYLGYPPPEIKWYKNGIPLESNHTIKAGHVLTIMEVSERDTGNYTVILTNPISKEKQSHVVSLVVYVPP
modifications: Human IgG1 Fc carrier left out; it dimerises the chain (copies 2). Limits not printed: VEGFR1 Ig2 and VEGFR2 Ig3-4 taken by convention from decoy-receptor boundaries and entry features. Glycosylated …
As usually defined, the Kd is the constant that tells how readily two partners part at equilibrium. In general, koff refers to the first-order rate constant of dissociation. As a reminder, the kon is a measure of how fast the partners come together. A high value points to fast association. Broadly, the EC50 is the midpoint of the concentration-response curve. With B1, the Kd came out at 51.2 nM in assay [1], 81.8 nM in assay [2], 5.26 nM in assay [3] and 5.4 nM in assay [4]. The koff in assay [1] amounted to 0.00581 s⁻¹; in assay [2] it was 0.00558 s⁻¹; in assay [3] it was 0.00105 s⁻¹; in assay [4] it was 0.00105 s⁻¹. In addition, the kon was 114000 M⁻¹ s⁻¹ in assay [1], 68300 M⁻¹ s⁻¹ in assay [2], 199000 M⁻¹ s⁻¹ in assay [3] and 194000 M⁻¹ s⁻¹ in assay [4]. Moreover, the EC50 in assay [5] stood at 0.1 nM.

Source of the values: article PMC3741282, “Novel VEGF Decoy Receptor Fusion Protein Conbercept Targeting Multiple VEGF Isoforms Provide Remarkable Anti-Angiogenesis Effect In Vivo” (PLoS ONE, 2013).
